Laboratory results from paper PMC8154254, “On the Track of Long-Range Electron Transfer in B-Type Dye-Decolorizing Peroxidases: Identification of a Tyrosyl Radical by Computational Prediction and Electron Paramagnetic Resonance Spectroscopy” (Biochemistry, 2021).

What follows are substances tested on CCn1c(=NN=c2sc3cc(S(=O)(=O)O)ccc3n2CC)sc2cc(S(=O)(=O)O)ccc21 (assay: purified protein). Conditions: 40 μM H2O2, 100 nM enzyme, 50 mM phosphate-citrate pH 5.0, room temperature.

| Substance | Km [µM] | kcat [s⁻¹] | kcat/Km [M⁻¹ s⁻¹] |
| --- | --- | --- | --- |
| KpDyP (B-type Klebsiella pneumoniae dye-decolorizing peroxidase) (Klebsiella pneumoniae; Y247F) | 270 ± 16 | 8.7 | 33000 |
| KpDyP (B-type Klebsiella pneumoniae dye-decolorizing peroxidase) (Klebsiella pneumoniae; Y247F/Y92F) | 345 ± 73 | 12.8 | 37000 |
| KpDyP (B-type Klebsiella pneumoniae dye-decolorizing peroxidase) (Klebsiella pneumoniae; Y237F) | 36 ± 7 | 4.6 | 125000 |
| KpDyP (B-type Klebsiella pneumoniae dye-decolorizing peroxidase) (Klebsiella pneumoniae; W18F/Y92F) | 84 ± 8 | 6.5 | 77000 |
| KpDyP (B-type Klebsiella pneumoniae dye-decolorizing peroxidase) (Klebsiella pneumoniae; W18F) | 54 ± 8 | 4.7 | 86000 |
